In article PMC8535469, “Insight into the Binding and Hydrolytic Preferences of hNudt16 Based on Nucleotide Diphosphate Substrates” (International Journal of Molecular Sciences, 2021):

Target: the molecule itself
Assay: SAXS; 2.618 mg/mL hNudt16 in 20 mM HEPES pH 7.9, 300 mM NaCl, 10% glycerol, 0.5 mM TCEP, 20 mM MgCl2; room temperature; scattering compared with crystal structures of the dimer (CRYSOL) and ab initio model (DAMMIN)

B1: human Nudt16 protein (hNudt16), wild type (enzyme, UniProt Q96DE0 1-195, looked up)
chain: MAGARRLELGEALALGSGWRHACHALLYAPDPGMLFGRIPLRYAILMQMRFDGRLGFPGGFVDTQDRSLEDGLNRELREELGEAAAAFRVERTDYRSSHVGSGPRVVAHFYAKRLTLEELLAVEAGATRAKDHGLEVLGLVRVPLYTLRDGVGGLPTFLENSFIGSAREQLLEALQDLGLLQSGSISGLKIPAHH
notes: human Nudt16 (hNudt16), NUDIX hydrolase; also called hNudt16 WT
stoichiometry N: 2
